Like-named read-outs stand apart in the source and are kept apart here.
T1: mouse CD47 (mouse, UniProt Q61735 19-140, limits assumed)
T1 construct: Soluble analyte in SPR; construct not described
T1 sequence (looked up): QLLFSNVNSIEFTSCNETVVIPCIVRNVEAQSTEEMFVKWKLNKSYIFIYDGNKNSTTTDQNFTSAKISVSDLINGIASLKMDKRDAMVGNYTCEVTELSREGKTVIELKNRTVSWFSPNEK


Tests used:
human CD47 [1] = molecular target: T2, human CD47 (human, UniProt Q08722 19-135); experiment: SPR, decoy captured on biotinylated Protein A, CD47 as analyte, 25 C
T2 construct: Soluble analyte in SPR; also called hCD47
Protocol: (§1) The binding affinities each decoy polypeptides for CD47 from various species (e.g., human CD47, cynomolgus monkey CD47, and mouse CD47) were determined using indirect capture via biotinylated Protein A (via NLC chip). All experiments were performed at 25° C. using a Surface Plasmon Resonance (SPR)-based ProteOn XPR36 biosensor (BioRad, Inc., Hercules, Calif.). The running buffer was PBS at pH 7.4 with 0.01% Tween-20 (PBST+). All analytes were used at their nominal concentrations as determined by A₂₈₀ absorbance and using their molar calculated extinction coefficients.
(§2) As a first step, 15 μg/mL biotinylated protein A (Thermofisher) was injected at 30 μL/min for 120 seconds over the NLC chip to obtain an immobilization response of about 1000-1200 RUs. Next, decoy polypeptides (about 100-160 nM) were injected for 80 seconds at 30 μL/min. The CD47 analytes (from human, cynomolgus monkey, and mouse) were subsequently injected in a “one-shot” kinetic mode at nominal concentrations of 100 nM, 33 nM, 11 nM, 3.7 nM, 1.2 nM, and 0 nM. Association times were monitored for 60 seconds at 25 μL/min, and dissociation times were monitored for 500 seconds. The surfaces were regenerated with a 2:1 v/v blend of Pierce IgG elution buffer/4M NaCl. Biosensor data were double-referenced by subtracting the interspot data (containing no immobilized protein) from the reaction spot data (immobilized protein) and then subtracting the response of a buffer “blank” analyte injection from that of an analyte injection. Double-referenced data were fit globally to a simple Langmuir model and the KD value was calculated from the ratio of the apparent kinetic rate constants (KD=kd/kₐ).

human CD47 [2] = molecular target: T2, human CD47; experiment: SPR; ratio against decoy polypeptide R (wild type SIRPγ D1 domain)
Protocol: as §1, §2

mouse CD47 = molecular target: T1, mouse CD47; experiment: SPR, decoy captured on biotinylated Protein A, CD47 as analyte, 25 C
Protocol: as §1, §2

human CD47 [3] = molecular target: T2, human CD47; experiment: as above; remark: listed apart in the source
Protocol: as §1, §2

cynomolgus monkey CD47 = molecular target: T3, cynomolgus monkey CD47 (cynomolgus monkey, UniProt A0A2K5X523 19-135); experiment: as above
T3 construct: Soluble analyte in SPR; construct not described; also called Cyno CD47
Protocol: as §1, §2

T2 sequence (Q08722 other isoform, or with tags, fused parts or gaps limits assumed): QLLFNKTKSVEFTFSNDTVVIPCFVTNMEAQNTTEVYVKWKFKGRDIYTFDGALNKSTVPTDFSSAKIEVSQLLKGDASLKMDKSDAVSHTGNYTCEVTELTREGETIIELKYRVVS

Binder | Kd (human CD47 [1]) [nM] | Fold improvement in KD vs wild type (human CD47 [2]) [fold] | Kd (mouse CD47) [nM] | Kd (human CD47 [3]) [nM] | Kd (cynomolgus monkey CD47) [nM]
Decoy polypeptide A (Fc fusion, expressed in Expi293 cells) EEELQIIQPEKLLLVTVGKTATLHCTITSLFPVGPVLWFRGVGPGRVLIYNQRQGPFPRVTTVSDTTKRNNMDFSIRISSITPADVGTYYCIKFRKGSPENVEFKSGPGTEMALGAKPSDKTHTCPPCPAPEAAGAPSVFLFPPKPKDTLMISRTPEVTCVVVDVSHEDPEVKFNWYVDGVEVHNAKTKPREEQYASTYRVVSVLTVLHQDWLNGKEYKCKVSNKALPAPIEKTISKAKGQPREPQVYTLPPSREEMTKNQVSLTCLVKGFYPSDIAVEWESNGQPENNYKTTPPVLDSDGSFFLYSKLTVDKSRWQQGNVFSCSVMHEALHNHYTQKSLSLSPG | 74.8 |  |  |  | 
Decoy polypeptide B (Fc fusion) EEELQIIQPEKLLLVTVGKTATLHCTITSLFPVGPIQWFRGVGPGRVLIYNQRDGPFPRVTTVSDGTKRNNMDFSIRISSITPADVGTYYCVKFRKGTPEDVEFKSGPGTEMALGAKPSDKTHTCPPCPAPEAAGAPSVFLFPPKPKDTLMISRTPEVTCVVVDVSHEDPEVKFNWYVDGVEVHNAKTKPREEQYASTYRVVSVLTVLHQDWLNGKEYKCKVSNKALPAPIEKTISKAKGQPREPQVYTLPPSREEMTKNQVSLTCLVKGFYPSDIAVEWESNGQPENNYKTTPPVLDSDGSFFLYSKLTVDKSRWQQGNVFSCSVMHEALHNHYTQKSLSLSPG | 0.32 | 6840 |  |  | 
Decoy polypeptide C (Fc fusion) EEELQIIQPEKLLLVTVGKTATLHCTITSLFPVGPIQWFRGVGPGRVLIYNQKDGPFPRVTTVSDGTKRNNMDFSIRISSITPADVGTYYCVKFRKGSPEDVEFKSGPGTEMALGAKPSDKTHTCPPCPAPEAAGAPSVFLFPPKPKDTLMISRTPEVTCVVVDVSHEDPEVKFNWYVDGVEVHNAKTKPREEQYASTYRVVSVLTVLHQDWLNGKEYKCKVSNKALPAPIEKTISKAKGQPREPQVYTLPPSREEMTKNQVSLTCLVKGFYPSDIAVEWESNGQPENNYKTTPPVLDSDGSFFLYSKLTVDKSRWQQGNVFSCSVMHEALHNHYTQKSLSLSPG | 0.243 | 9010 | 0.905 | 0.243 | 0.274
Decoy polypeptide D (Fc fusion) EEELQIIQPEKLLLVTVGKTATLHCTITSLFPVGPIQWFRGVGPGRVLIYNQKDGHFPRVTTVSDGTKRNNMDFSIRISSITPADVGTYYCVKFRKGSPEDVEFKSGPGTEMALGAKPSDKTHTCPPCPAPEAAGAPSVFLFPPKPKDTLMISRTPEVTCVVVDVSHEDPEVKFNWYVDGVEVHNAKTKPREEQYASTYRVVSVLTVLHQDWLNGKEYKCKVSNKALPAPIEKTISKAKGQPREPQVYTLPPSREEMTKNQVSLTCLVKGFYPSDIAVEWESNGQPENNYKTTPPVLDSDGSFFLYSKLTVDKSRWQQGNVFSCSVMHEALHNHYTQKSLSLSPG | 1.8 | 1220 |  |  | 
Decoy polypeptide F (Fc fusion) EEELQIIQPEKLLLVTVGKTATLHCTITSHFPVGPIQWFRGVGPGRVLIYNQKDGHFPRVTTVSDGTKRNNMDFSIRISSITPADVGTYYCVKFRKGSPEDVEFKSGPGTEMALGAKPSDKTHTCPPCPAPEAAGAPSVFLFPPKPKDTLMISRTPEVTCVVVDVSHEDPEVKFNWYVDGVEVHNAKTKPREEQYASTYRVVSVLTVLHQDWLNGKEYKCKVSNKALPAPIEKTISKAKGQPREPQVYTLPPSREEMTKNQVSLTCLVKGFYPSDIAVEWESNGQPENNYKTTPPVLDSDGSFFLYSKLTVDKSRWQQGNVFSCSVMHEALHNHYTQKSLSLSPG | 0.881 | 2490 |  |  | 
Decoy polypeptide G (Fc fusion) EEELQIIQPEKLLLVTVGKTATLHCTITSLFPVGPVLWFRGVGPGRVLIYNQRQGPFPRVTTVSDTTKRNNMDFSIRISSITPADVGTYYCVKFRKGTPEDVEFKSGPGTEMALGAKPSDKTHTCPPCPAPEAAGAPSVFLFPPKPKDTLMISRTPEVTCVVVDVSHEDPEVKFNWYVDGVEVHNAKTKPREEQYASTYRVVSVLTVLHQDWLNGKEYKCKVSNKALPAPIEKTISKAKGQPREPQVYTLPPSREEMTKNQVSLTCLVKGFYPSDIAVEWESNGQPENNYKTTPPVLDSDGSFFLYSKLTVDKSRWQQGNVFSCSVMHEALHNHYTQKSLSLSPG | 1.56 | 1400 |  |  | 
Decoy polypeptide H (Fc fusion) EEELQIIQPEKLLLVTVGKTATLHCTITSLFPVGPIQWFRGVGPGRELIYNAREGRFPRVTTVSDLTKRNNMDFSIRISSITPADVGTYYCVKFRKGSPEDVEFKSGPGTEMALGAKPSDKTHTCPPCPAPEAAGAPSVFLFPPKPKDTLMISRTPEVTCVVVDVSHEDPEVKFNWYVDGVEVHNAKTKPREEQYASTYRVVSVLTVLHQDWLNGKEYKCKVSNKALPAPIEKTISKAKGQPREPQVYTLPPSREEMTKNQVSLTCLVKGFYPSDIAVEWESNGQPENNYKTTPPVLDSDGSFFLYSKLTVDKSRWQQGNVFSCSVMHEALHNHYTQKSLSLSPG | 0.483 | 4530 |  |  | 
Decoy polypeptide J (Fc fusion) EEELQIIQPEKLLLVTVGKTATLHCTITSLLPVGPIQWFRGVGPGRELIYNQRDGPFPRVTTVSDGTKRNNMDFSIRISSITPADVGTYYCVKFRKGTPEDVEFKSGPGTEMALGAKPSDKTHTCPPCPAPEAAGAPSVFLFPPKPKDTLMISRTPEVTCVVVDVSHEDPEVKFNWYVDGVEVHNAKTKPREEQYASTYRVVSVLTVLHQDWLNGKEYKCKVSNKALPAPIEKTISKAKGQPREPQVYTLPPSREEMTKNQVSLTCLVKGFYPSDIAVEWESNGQPENNYKTTPPVLDSDGSFFLYSKLTVDKSRWQQGNVFSCSVMHEALHNHYTQKSLSLSPG | 0.275 | 7960 | 1.3 | 0.398 | 0.33
Decoy polypeptide L (Fc fusion) EEELQLIQPEKLLLVTVGKTATLHCTITSLFPPGPIQWFRGVGPGRVLIYNQKDGPFPRVTTVSDGTKRNNMDFSIRISSITPADVGTYYCVKFRKGIPEDVEFKSGPGTEMALGAKPSDKTHTCPPCPAPEAAGAPSVFLFPPKPKDTLMISRTPEVTCVVVDVSHEDPEVKFNWYVDGVEVHNAKTKPREEQYASTYRVVSVLTVLHQDWLNGKEYKCKVSNKALPAPIEKTISKAKGQPREPQVYTLPPSREEMTKNQVSLTCLVKGFYPSDIAVEWESNGQPENNYKTTPPVLDSDGSFFLYSKLTVDKSRWQQGNVFSCSVMHEALHNHYTQKSLSLSPG | 4.02 | 545 |  |  | 
Decoy polypeptide Q (Fc fusion) EEELQIIQPDKSISVAAGESATLHCTITSLFPVGPIQWFRGAGPGRVLIYNQRQGPFPRVTTVSDTTKRNNMDFSIRISNITPADAGTYYCIKFRKGSPDDVEFKSGAGTELSVRAKPSDKTHTCPPCPAPEAAGAPSVFLFPPKPKDTLMISRTPEVTCVVVDVSHEDPEVKFNWYVDGVEVHNAKTKPREEQYASTYRVVSVLTVLHQDWLNGKEYKCKVSNKALPAPIEKTISKAKGQPREPQVYTLPPSREEMTKNQVSLTCLVKGFYPSDIAVEWESNGQPENNYKTTPPVLDSDGSFFLYSKLTVDKSRWQQGNVFSCSVMHEALHNHYTQKSLSLSPG | 0.213 |  | 24.1 | 0.0785 | 0.106
Decoy polypeptide P (Fc fusion) EDELQIIQPEKSVSVAAGESATLRCAITSLFPVGPIQWFRGAGAGRVLIYNQRQGPFPRVTTVSETTKRNNLDFSISISNITPADAGTYYCIKFRKGSPDDVEFKSGAGTELSVRAKPSDKTHTCPPCPAPEAAGAPSVFLFPPKPKDTLMISRTPEVTCVVVDVSHEDPEVKFNWYVDGVEVHNAKTKPREEQYASTYRVVSVLTVLHQDWLNGKEYKCKVSNKALPAPIEKTISKAKGQPREPQVYTLPPSREEMTKNQVSLTCLVKGFYPSDIAVEWESNGQPENNYKTTPPVLDSDGSFFLYSKLTVDKSRWQQGNVFSCSVMHEALHNHYTQKSLSLSPG | 0.35 |  | 146 | 0.288 | 0.334
Decoy polypeptide U (Fc fusion, positive control) EEELQIIQPDKSVLVAAGETATLRCTITSLFPVGPIQWFRGAGPGRELIYNQREGPFPRVTTVSDTTKRNNMDFSIRIGAITPADAGTYYCVKFRKGSPDDVEFKSGAGTELSVRAKPSDKTHTCPPCPAPEAAGAPSVFLFPPKPKDTLMISRTPEVTCVVVDVSHEDPEVKFNWYVDGVEVHNAKTKPREEQYASTYRVVSVLTVLHQDWLNGKEYKCKVSNKALPAPIEKTISKAKGQPREPQVYTLPPSREEMTKNQVSLTCLVKGFYPSDIAVEWESNGQPENNYKTTPPVLDSDGSFFLYSKLTVDKSRWQQGNVFSCSVMHEALHNHYTQKSLSLSPG |  |  | 7.82 | 0.193 | 0.224

Reference: patent publication US20210347848A1 (ALX ONCOLOGY, published 2021)
